Experimental findings from the supplement of paper PMC10201428 are described below.

± gives the standard deviation of the averaged measurements.

In series [1] the test system is VchCAST RNA-guided transposition machinery (E. coli BL21(DE3) host, lacZ target). Put plainly: relative integration efficiency (T-RL orientation) vs wild-type transposon end (log2 (normalized fold change)); transposon end mutated: right end (5 bp flank + 75 bp right end); higher = more efficient transposition. The method, boiled down: (§1)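 A T7-driven effector plasmid encoding a CRISPR array, tniQ-cas8-cas7-cas6 and tnsA-tnsB-tnsC was co-transformed into E. coli BL21(DE3) together with a pUC57 mini-transposon donor holding barcoded pools of 1549 left-end or 1849 right-end variants. Transformants were plated with 0.1 mM IPTG at 37°C for 18 h. Illumina sequencing of PCR-amplified input plasmids and genomic integration junctions gave barcode abundances, and relative integration efficiency is their output/input fold change, normalised to reference barcodes and log-transformed.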

Series [2] shares this test system. Put plainly: relative integration efficiency (T-LR orientation) vs wild-type transposon end (log2 (normalized fold change)); transposon end mutated: right end (5 bp flank + 75 bp right end); higher = more efficient transposition. The method in brief:
as §1

With “ACATTTGTTGATACAACCATCAAATGGTAATTACACCCCTACATTGATAATTATCACACCCAATTTAACTATAACGCTCTGATCATAGTCAGACCAACATTGCTACGACCCGTATTCGCACCGACAC”, the “relative integration efficiency (log2)” value in series [1] was -5.5 ± 0.092; in series [2], -3.18 ± 1.1.
Taken in the same sequence, the figures for “ACATTTGTTGATACAACCATCAAATGGTAATTCCACCCATAAATTGATAATTATCACACCCAATTTAACTATAACGCTCTGATCATAGTCAGACCAACATTGCTACGACCCGTATTCGCACCGACAC” were -2.06 ± 0.2 and 0.505 ± 0.11.
Taken in the same sequence, the figures for “ACATTTGTTGATACAACCATCAAATGGTAATTCCACCCATACATTGATAATTATCACACCCAATTTAACTATAACGCTCTGATCATAGTCAGACCAACATTGCTACGACCCGTATTCGCACCGACAC” were -4.83 ± 0.15 and -2.28 ± 0.36.
For the sequence “ACATTTGTTGATACAACCATCAAATGGTAATTCCACCCCTAAATTGATAATTATCACACCCAATTTAACTATAACGCTCTGATCATAGTCAGACCAACATTGCTACGACCCGTATTCGCACCGACAC”, the “relative integration efficiency (log2)” value was -5.34 ± 0.16 in series [1] and -2.59 ± 0.29 in series [2].
Consider “ACATTTGTTGATACAACCATCAAATGGTAATTCCACCCCTACATTGATAATTATCACACCCAATTTAACTATAACGCTCTGATCATAGTCAGACCAACATTGCTACGACCCGTATTCGCACCGACAC”, for which the “relative integration efficiency (log2)” value in series [1] is -5.71 ± 0.097; in series [2] it was -3.06 ± 0.11.
Consider “ACATTTGTTGATACAACCATCCAATGATAATTACACCCATAAATTGATAATTATCACACCCATAAATTGATATTGCCTCTGATCATAGTCAGACCAACATTGCTACGACCCGTATTCGCACCGACAC”, for which the results for the “relative integration efficiency (log2)” value in series [1] and in series [2] were -1.36 ± 0.083 and -2.03 ± 0.58, respectively.
For “ACATTTGTTGATACAACCATCCCCTGATAATTACACCCATAAATTGATAATTATCACACCCATAAATTGATATTGCCTCTGATCATAGTCAGACCAACATTGCTACGACCCGTATTCGCACCGACAC”, the “relative integration efficiency (log2)” value in series [1] was -2.13 ± 0.056; in series [2], -1.78 ± 0.023.
Taken in the same sequence, the figures for “ACATTTGTTGATACAACCATCCCCTGATAATTACACCCATCCCGTGATAATTATCACACCCATCCCGTGATATTGCCTCTGATCATAGTCAGACCAACATTGCTACGACCCGTATTCGCACCGACAC” were -5.99 ± 0.12 and -3.86 ± 0.83.
Turning to “ACATTTGTTGATACAACCATTAAATAATAATTCCACCCATAAATTGATAATTATCACACCCAATTTAACTATAACGCTCTGATCATAGTCAGACCAACATTGCTACGACCCGTATTCGCACCGACAC”, the “relative integration efficiency (log2)” value in series [1] was -1.71 ± 0.2; in series [2], 1.55 ± 0.071.
Regarding “ACATTTGTTGATACAACCATTAAATGATAATTACACCCAAAAATTGATAATTATCACACCCAATTTAACTATAACGCTCTGATCATAGTCAGACCAACATTGCTACGACCCGTATTCGCACCGACAC”, the “relative integration efficiency (log2)” value in series [1] is -0.982 ± 0.24; in series [2], 2.03 ± 0.09.
In the case of “ACATTTGTTGATACAACCATTAAATGATAATTACACCCATAAATTGATAATAATGACACCGAATTTAACTATAACGCTCTGATCATAGTCAGACCAACATTGCTACGACCCGTATTCGCACCGACAC”, the “relative integration efficiency (log2)” value in series [1] was -0.985 ± 0.22; in series [2], 1.98 ± 0.0099.
Taken in the same sequence, the figures for “ACATTTGTTGATACAACCATTAAATGATAATTACACCCATAAATTGATAATGATGACACCGAATTTAACTATAACGCTCTGATCATAGTCAGACCAACATTGCTACGACCCGTATTCGCACCGACAC” were -1.3 ± 0.18 and 1.9 ± 0.16.
In the case of “ACATTTGTTGATACAACCATTAAATGATAATTACACCCATAAATTGATAATTGTGACACCGAATTTAACTATAACGCTCTGATCATAGTCAGACCAACATTGCTACGACCCGTATTCGCACCGACAC”, the “relative integration efficiency (log2)” value in series [1] is -1.2 ± 0.14; in series [2], 1.99 ± 0.027.
As to “ACATTTGTTGATACAACCATTAAATGATAATTACACCCATAATTTGATAATTATCACACCCAATTTAACTATAACGCTCTGATCATAGTCAGACCAACATTGCTACGACCCGTATTCGCACCGACAC”, the entries for the “relative integration efficiency (log2)” value in series [1] and in series [2] were -0.76 ± 0.025 and 2.23 ± 0.16, respectively.
